Tests used:
human leukocyte elastase = molecular target: T1, human leukocyte elastase (Homo sapiens, UniProt P08246); assay: Inhibition of leukocyte elastase (Ki); format: biochemical
T1 sequence (P08246 30-267): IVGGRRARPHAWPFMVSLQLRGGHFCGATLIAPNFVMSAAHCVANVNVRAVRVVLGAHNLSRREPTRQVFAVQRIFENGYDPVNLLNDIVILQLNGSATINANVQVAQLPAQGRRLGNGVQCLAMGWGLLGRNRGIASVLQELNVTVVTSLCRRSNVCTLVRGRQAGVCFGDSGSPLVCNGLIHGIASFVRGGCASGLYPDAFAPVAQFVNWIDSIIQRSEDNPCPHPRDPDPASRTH
Excerpt: The invention generally relates to novel uses of polypeptides comprising the sequence depicted in SEQ ID NO: 1 or homologue, derivatives, or fragments of the sequence depicted in SEQ ID NO: 1, for the treatment of medical conditions for which a use of […] has not yet been contemplated. […] Experiments for measuring the activity of leukocyte elastase and its inhibition can be conducted by the method described in European Patent EP 0 402 068. As used herein, the term “homologue” refers to peptides or polypeptides which share a substantial degree of homology on the amino acid level with the sequence of SEQ ID NO: 1 over a certain stretch of its primary structure. In particular, the term “homologue” relates to polypeptides having a sequence (or comprising such sequence) which differs from the sequence depicted in SEQ ID NO: 1 by the substitution (or deletion) of one or more single amino acids. Generally, any amino acid from the sequence depicted in SEQ ID NO: 1 can be deleted or substituted against another amino acid as long as the inhibitory activity of the polypeptide is not lost. Further polypeptides are also included which differ from the sequence of SEQ ID NO: 1 by the insertion of one or more additional amino acids. “One or more” in the above context always refers to 1-50, preferably 1-20, even more preferably 1-10, most preferably 1-5. […]

[1] = Plasma Elafin levels (ELISA) in patients undergoing esophagectomy; format: in vivo, human
Protocol: Blood samples were removed at the intervals indicated and plasma was prepared and stored frozen at −20° C. Plasma Elafin levels were measured using an ELISA.

serum elastase [2] = molecular target: T2, serum elastase (Homo sapiens, UniProt P08246); assay: Serum elastase activity (photometric assay) in patients undergoing esophagectomy; format: in vivo; details: 200 mg i.v. over 30 min, beginning 15 min before surgery
T2 construct: from tissue; host or cells: human serum
T2 sequence (P08246 30-267): T1 sequence (P08246 30-267)
Protocol: Blood samples were removed at the intervals indicated and serum was prepared and stored frozen at −20° C. Serum elastase activity was determined using a photometric assay.

IL-6 = assay: Serum IL-6 2 h after esophagectomy (immunoassay); format: in vivo, human; details: 200 mg i.v.; 2 h postoperatively; versus placebo
Protocol: Blood samples were taken 2 h after finishing surgery and serum was prepared. The serum level of IL-6 was measured using a routine immunoassay (“Immulite, IL-6”, available from Siemens Medical Solution Diagnostics).

IL-8 = assay: Serum IL-8 6 h after esophagectomy (ELISA); format: in vivo, human; details: 200 mg i.v.; 6 h postoperatively; versus placebo
Protocol: Blood samples were taken 6 h after finishing surgery and serum was prepared. The serum level of IL-8 was measured using a commercially available ELISA, (“Immulite, IL-8”, available from Siemens Medical Solution Diagnostics).

CRP = details: 200 mg i.v.; first postoperative day; versus placebo
Protocol: Patients undergoing esophagectomy for esophagus carcinoma were administered either 200 mg Elafin in 250 mL physiological saline (verum) or 250 mL saline (placebo) i.v. over a period of 30 min beginning 15 min before the commencement of surgery. Serum was prepared from blood samples which were taken on admission and on the day after surgery. The serum levels of CRP were measured using a commercially available ELISA. (CRPL 3, cobas®, available from Roche/Hitachi).

[3] = Period of postoperative intensive care (ICU) after esophagectomy; format: in vivo, human; details: 200 mg i.v.
Excerpt: After surgery all patients were routinely admitted to the intensive care unit (ICU) at least overnight. Patients were maintained in the ICU for as long as the treating physician considered necessary.

[4] = molecular target: T3, leukocyte elastase activity in the serum (Homo sapiens, UniProt P08246); assay: Phase I: serum elastase activity after single intravenous infusion in healthy male volunteers; format: in vivo
T3 construct: from tissue; host or cells: human serum (ex vivo, after in vivo dosing of Elafin)
T3 sequence (P08246 30-267): T1 sequence (P08246 30-267)
Protocol: In order to assess the potential pharmacological effect of administered Elafin the inhibition of leukocyte elastase activity in the serum was measured.
The data presented in FIG. 7 were obtained in a Phase I clinical trial.
Within each dosage group the median elastase activity is shown relative to the predose value at t=0 min.

[5] = Plasma Elafin levels (ELISA) after subcutaneous injection in a healthy human volunteer; format: in vivo; details: 100 mg subcutaneously, n = 1
Protocol: 100 mg of Elafin physiological saline were injected subcutaneously into the abdomen of a healthy human volunteer. Blood samples were removed at the times indicated in FIG. 9 and plasma prepared and stored at −20° C. The plasma Elafin levels were measured using an ELISA.

serum elastase [6] = molecular target: T2, serum elastase; assay: Serum elastase activity after subcutaneous injection in a healthy human volunteer; format: in vivo; details: 100 mg subcutaneously; within the first 30 min-4 hours
Protocol: 100 mg of Elafin in physiological saline were injected subcutaneously into the abdomen of a healthy human volunteer. Blood samples were removed at the times indicated in FIG. 10 and serum prepared and stored at −20° C.

[7] = Stability of Elafin to sterilization, quantified by HPLC; format: physicochemical
Protocol: (§1) Lyophilized samples of 300 μg Elafin were sterilized either by heat sterilization or by ethylene oxide sterilization in a suitable standard sterile packing material. After sterilization, samples were dissolved in 300 μl distilled water. Elafin was quantified by HPLC (reverse phase C8-separation medium) and by determination of elastase inhibitory activity.

elastase = assay: Stability of Elafin to sterilization, elastase inhibitory activity; format: biochemical
Protocol: as §1

rats = assay: Biocompatibility: 14 days continuous intravenous infusion in rats; format: in vivo
Protocol: Rats were treated with up to 100 mg elafin/kg/day over a period of 14 days by continuous intravenous infusion.

Pseudomanae aeruginosa = details: cited from earlier work
Staphylococcus aureus = details: cited from earlier work
[8] = Phase I: plasma Elafin concentrations (ELISA) after single intravenous infusion in healthy male volunteers
Protocol: Each dose was administered to 6 individuals. After Elafin administration blood samples were taken at the indicated times from each volunteer and the plasma prepared and frozen to −20° C. Elafin in the plasma samples was quantified using an ELISA.

[9] = rats, up to 100 mg/kg/day, 14 days continuous i.v. infusion

Elafin: Human anti-protease polypeptide of 57 amino acids, about 6 kDa (SEQ ID NO: 1); reversible inhibitor of neutrophil elastase and proteinase 3 (AQEPVKGPVSTKPGSCPIILIRCAMLNPPNRCLKDTDCPGIKKCCEGSCGMACFVPQ; listed as Homo sapiens)
Ki (human leukocyte elastase): ~0.1 nM | half life estimated from plasma levels in esophagectomy patients ([1]; 200 mg i.v. at the beginning of surgery): at most 2 h | period of significant plasma Elafin concentrations after the end of the operation ([1]; 200 mg i.v. over 30 min, beginning 15 min before surgery): up to 6 h | serum elastase activity during the period of surgery (serum elastase [2]): markedly reduced | serum elastase activity in the course of the subsequent 3 postoperative days (serum elastase [2]): recovered to slightly less than the preoperative level | diminution of postoperative increase in serum IL-6 (IL-6): about 80% | diminution of postoperative increase in serum IL-8 (IL-8): about 70% | diminution of postoperative increase in serum CRP (CRP): about 70% | period of postoperative ICU care required ([3]; compared with placebo): significant reduction | reduction of necessity for intensive care ([3]; meaning of 'significant reduction' (at least 25% or one day)): at least 25% | Median t50% (duration of serum elastase inhibition to a threshold level of 50%) ([4]; 20 mg i.v.): 40 min | Median t50% (duration of serum elastase inhibition to a threshold level of 50%) ([4]; 200 mg i.v.): 480 min | Median t50% (duration of serum elastase inhibition to a threshold level of 50%) ([4]; 400 mg i.v.): 720 min | period of pharmacologically relevant elastase inhibition ([4]; doses of 100-400 mg i.v.): up to 720 min | inhibition of serum elastase ([4]; single i.v. infusion over 30 min, various doses): rapid and potent inhibition | time of peak plasma concentration after administration [5]: about 60 min | inhibition of serum elastase activity (serum elastase [6]): potent inhibition | HPLC (Elafin quantified) ([7]; Control (room temperature)): 108 µg | HPLC (Elafin quantified) ([7]; Ethylene oxide sterilization): 100 µg | HPLC (Elafin quantified) ([7]; Heat sterilization): 0 µg | Inhibitory activity (elastase; Control (room temperature)): 100% | Inhibitory activity (elastase; Ethylene oxide sterilization): 101% | Inhibitory activity (elastase; Heat sterilization): −19- % | side effects (rats; intravenously to rats): without any side effects | body weight (rats; [9]): Neither food consumption nor body weight was influenced | clinical signs of haemolysis or cytotoxicity in skin, eyes, mucous membranes, lungs and circulation (rats; [9]): no clinical signs of haemolysis or cytotoxicity were observed | food consumption (rats; [9]): Neither food consumption nor body weight was influenced | mortality (rats; [9]): No mortality | kill Pseudomanae aeruginosa (Pseudomanae aeruginosa): kill | kill Staphylococcus aureus (Staphylococcus aureus): kill | half-life of elafin in plasma ([8]; on average): 115 min | mode of elimination from plasma ([8]; single i.v. infusion, healthy volunteers): eliminated in two first-order processes
